Results published in article PMC6098094.

Tests used:
Test in all cases: two-hybrid; quantitative yeast two-hybrid, para-nitrophenyl-alpha-galactoside assay; interaction strength as percentage of wildtype GAL4BD-UBXD1; three independent experiments with five yeast transformands per condition
Gal4BD-UBXD1ΔVIM = target: Gal4BD-UBXD1ΔVIM
Gal4BD-UBXD1ΔPUB = target: Gal4BD-UBXD1ΔPUB
Gal4BD-UBXD1ΔUBX = target: Gal4BD-UBXD1ΔUBX

interaction strength as percentage of wildtype GAL4BD-UBXD1 (% of wildtype GAL4BD-UBXD1) (Gal4BD-UBXD1ΔVIM): 8.1
interaction strength as percentage of wildtype GAL4BD-UBXD1 (% of wildtype GAL4BD-UBXD1) (Gal4BD-UBXD1ΔPUB): 13.8
interaction strength as percentage of wildtype GAL4BD-UBXD1 (% of wildtype GAL4BD-UBXD1) (Gal4BD-UBXD1ΔUBX): 29.2
Substance: Gal4AD-p97 (from UniProt P55072 1-806) (natural protein)
